Laboratory results as given in article PMC11349179, “Comparative analysis of the LARP1 C-terminal DM15 region through Coelomate evolution” (PLOS ONE, 2024).

Key:
[1] = biological target: DrDM15 (zebrafish) (UniProt F1R0U5); assay: EMSA; settings: 5' m7G cap (Vaccinia capping), EMSA: 20 mM Tris-HCl pH 8, 150 mM NaCl, 10% glycerol, 1 mM DTT, 0.5 ug tRNA, 1 ug BSA, pM RNA (95 C, snap cooled), native 7% PAGE, 0.5X TBE
[2] = biological target: T1, DrDM15 (Danio rerio, UniProt A0A8M9P457); assay: differential scanning fluorimetry (SYPRO Orange); assay type: binding; settings: 5 uM protein, 500 uM ligand; 50 mM Tris-HCl pH 8, 100 mM NaCl, 0.6 mM DTT, 10% glycerol
T1 construct: gene larp1; C-terminal DM15 region, residues 754-904; E. coli BL21(DE3); His6-MBP tag removed with TEV protease; Gly6 linker after TEV site; monomer
T1 sequence (A0A8M9P457 778-928): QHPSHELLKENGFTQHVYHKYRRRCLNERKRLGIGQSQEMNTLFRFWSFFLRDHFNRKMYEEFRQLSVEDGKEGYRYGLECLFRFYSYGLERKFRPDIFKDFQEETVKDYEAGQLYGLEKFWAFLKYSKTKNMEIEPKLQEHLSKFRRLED

[3] = biological target: T2, HsDM15 (Homo sapiens, UniProt Q6PKG0); assay: differential scanning fluorimetry (SYPRO Orange); assay type: binding; settings: 5 uM protein, 500 uM ligand; 50 mM Tris-HCl pH 8, 100 mM NaCl, 0.6 mM DTT, 10% glycerol
T2 construct: gene LARP1; C-terminal DM15 region; E. coli BL21(DE3); His6-MBP tag removed with TEV protease; monomer; residues 796-941 used in simulation only

[4] = biological target: T3, DmDM15 (Drosophila melanogaster, UniProt Q9VAW5); assay: differential scanning fluorimetry (SYPRO Orange); assay type: binding; settings: 5 uM protein, 500 uM ligand; 50 mM Tris-HCl pH 8, 100 mM NaCl, 0.6 mM DTT, 10% glycerol
T3 construct: gene larp; C-terminal DM15 region; E. coli BL21(DE3); His6-MBP tag removed with TEV protease; monomer
T3 sequence (Q9VAW5 1330-1481): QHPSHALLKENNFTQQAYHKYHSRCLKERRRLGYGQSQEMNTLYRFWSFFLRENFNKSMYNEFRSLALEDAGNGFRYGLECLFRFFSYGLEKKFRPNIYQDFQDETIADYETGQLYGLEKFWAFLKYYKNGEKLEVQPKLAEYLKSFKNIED

[5] = biological target: T4, HsDM15 (Homo sapiens, UniProt Q6PKG0-3 796-946); assay: EMSA; EMSA: 20 mM Tris-HCl pH 8, 150 mM NaCl, 10% glycerol, 1 mM DTT, 0.5 ug tRNA, 1 ug BSA, pM RNA (95 C, snap cooled), 0.5-1 h on ice; native 7% PAGE, 0.5X TBE; settings: protein: recombinant, tags: His6-MBP removed by TEV, label: 32P in cap
[6] = biological target: DmDM15 (fruit fly, UniProt A0A0B4K7Y7 1330-1481); assay: as above; settings: protein: recombinant, tags: His6-MBP removed by TEV, label: 32P in cap
DmDM15 (fruit fly, UniProt A0A0B4K7Y7 1330-1481), sequence (A0A0B4K7Y7 entry or part of it): as the sequence (Q9VAW5 1330-1481) above

[7] = biological target: T4, HsDM15; assay: EMSA; stated only as picomolar affinity; EMSA: 20 mM Tris-HCl pH 8, 150 mM NaCl, 10% glycerol, 1 mM DTT, 0.5 ug tRNA, 1 ug BSA, pM RNA (95 C, snap cooled), 0.5-1 h on ice; native 7% PAGE, 0.5X TBE; settings: protein: recombinant; tags: His6-MBP removed by TEV; label: 32P in cap
[8] = 5' end paired in one predicted fold

“CCUCUUUUCCGUGGCGCCUCGGAGGCGUUCAGCUGCUUCAAG [HsRPS6 42-mer, capped]” gave a Kd ([1]; 0.5-1 h on …) of 10000 pM.

Molecule “CCUUCUCCCCGGCGGUUAGUGCUGAGAGUGCGGAGUGUGUGC [HsPABPC1 42-mer, capped]” has a Kd ([1]; 0.5-1 h on …) of 97000 pM.

Work on “CCUCUUUUCCGCUUAUCUCUUUGAGAUAAAUGCAUAUUUUUU [HsRPS6_Stem, capped]” yielded a Kd ([1]; 0.5-1 h on …) of 7900 pM.

`C[n+]1cn([C@@H]2O[C@H](COP(=O)(O)OP(=O)(O)OP(=O)(O)O)[C@@H](O)[C@H]2O)c2nc(N)[nH]c(=O)c21` [m^7GTP] was tested, and the Tm [2] was “thermal stabilization of all three orthologs in the presence of a cap analog (Fig 3D)”, the Tm [3] was “thermal stabilization of all three orthologs in the presence of a cap analog (Fig 3D)” and the Tm [4] was “thermal stabilization of all three orthologs in the presence of a cap analog (Fig 3D)”.

With “CUUUUGCCAUUGUCAGCCGACGAAGUGCUUUAACCCAAACUA [DmRPL30 42-mer, capped]” the Kd ([1]; stated only as picomolar affinity, 0.5-1 h on ice) was under 1000 pM.

For “CCUUCUCCCCGCUUAUCUCUUUGAGAUAAAUGCAUAUUUUUU [HsPABPC1_Stem, capped]”, the Kd ([1]; 0.5-1 h on …) was 6900 pM.

Molecule CCUCUUUUCCGUGGCGCCUCGGAGGCGUUCAGCUGCUUCAAG (structured_RNA, 5' m7G cap (Vaccinia capping)) [HsRPS6 42-mer, capped] has a Kd ([5]; hairpin (predicted)) of 3.9 ± 0.2 nM and a Kd ([6]; hairpin (predicted)) of 58 ± 0.02 nM.

In the case of CUUUUGCCAUUGUCAGCCGACGAAGUGCUUUAACCCAAACUA (ssRNA, 5' m7G cap (Vaccinia capping)) [DmRPL30 42-mer, capped], the Kd [7] is reported as under 1 nM.

In the case of CCUCUUUUCCGCUUAUCUCUUUGAGAUAAAUGCAUAUUUUUU (structured_RNA, 5' m7G cap (Vaccinia capping)) [HsRPS6_Stem, capped], the Kd ([5]; hairpin (predicted)) is reported as 1.9 ± 0.05 nM and the Kd ([6]; hairpin (predicted)) is reported as 29 ± 0.06 nM.

With CCUUCUCCCCGCUUAUCUCUUUGAGAUAAAUGCAUAUUUUUU (structured_RNA, 5' m7G cap (Vaccinia capping)) [HsPABPC1_Stem, capped] the Kd ([5]; hairpin (predicted)) was 1.5 ± 0.04 nM and the Kd ([6]; hairpin (predicted)) was 6.1 ± 0.03 nM.

CCUUCUCCCCGGCGGUUAGUGCUGAGAGUGCGGAGUGUGUGC (structured_RNA, 5' m7G cap (Vaccinia capping)) [HsPABPC1 42-mer, capped] was tested, and the Kd [5, 8] was 18 ± 0.06 nM and the Kd [6, 8] was 140 ± 0.02 nM.
